B1: CAP256V2LS-J3-2 (bispecific antibody)
heavy: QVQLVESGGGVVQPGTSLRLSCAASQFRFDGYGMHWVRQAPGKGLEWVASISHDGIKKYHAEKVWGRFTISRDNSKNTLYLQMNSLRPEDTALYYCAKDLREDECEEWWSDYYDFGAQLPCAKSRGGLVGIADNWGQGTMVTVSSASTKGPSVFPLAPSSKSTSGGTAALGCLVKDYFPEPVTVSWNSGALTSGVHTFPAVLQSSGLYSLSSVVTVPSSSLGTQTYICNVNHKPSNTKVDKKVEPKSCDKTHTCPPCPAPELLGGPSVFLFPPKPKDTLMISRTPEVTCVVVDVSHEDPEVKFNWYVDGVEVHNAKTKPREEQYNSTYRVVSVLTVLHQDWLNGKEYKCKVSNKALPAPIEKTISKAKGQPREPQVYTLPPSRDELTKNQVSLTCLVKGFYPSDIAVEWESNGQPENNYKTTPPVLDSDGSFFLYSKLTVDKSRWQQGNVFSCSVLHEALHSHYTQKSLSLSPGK
light: EVQLVESGGGLVQAGGFLRLSCELRGSIFNQYAMAWFRQAPGKEREFVAGMGAVPHYGEFVKGRFTISRDNAKSTVYLQMSSLKPEDTAIYFCARSKSTYISYNSNGYDYWGRGTQVTVSSGGSGGGGSGGQSVLTQPPSVSAAPGQKVTISCSGNTSNIGNNFVSWYQQRPGRAPQLLIYETDKRPSGIPDRFSASKSGTSGTLAITGLQTGDEADYYCATWAASLSSARVFGTGTQVIVLGQPKVNPTVTLFPPSSEELQANKATLVCLISDFYPGAVTVAWKADSSPVKAGVETTTPSKQSNNKYAASSYLSLTPEQWKSHRSYSCQVTHEGSTVEKTVAPTECS
B2: CAP256V2LS-J3-3 (bispecific antibody)
heavy: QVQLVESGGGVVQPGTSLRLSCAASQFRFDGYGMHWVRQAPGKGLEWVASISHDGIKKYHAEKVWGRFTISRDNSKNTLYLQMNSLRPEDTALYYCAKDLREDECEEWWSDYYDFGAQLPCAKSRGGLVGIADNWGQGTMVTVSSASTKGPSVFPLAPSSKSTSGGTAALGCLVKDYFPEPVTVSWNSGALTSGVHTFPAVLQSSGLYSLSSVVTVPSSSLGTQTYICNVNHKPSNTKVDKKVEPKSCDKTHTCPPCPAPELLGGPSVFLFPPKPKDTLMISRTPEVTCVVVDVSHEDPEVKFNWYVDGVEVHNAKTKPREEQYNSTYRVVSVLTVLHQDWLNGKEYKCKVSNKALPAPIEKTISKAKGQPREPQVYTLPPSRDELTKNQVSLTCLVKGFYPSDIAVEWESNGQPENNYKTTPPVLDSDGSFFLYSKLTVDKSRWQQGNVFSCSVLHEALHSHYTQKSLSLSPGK
light: EVQLVESGGGLVQAGGFLRLSCELRGSIFNQYAMAWFRQAPGKEREFVAGMGAVPHYGEFVKGRFTISRDNAKSTVYLQMSSLKPEDTAIYFCARSKSTYISYNSNGYDYWGRGTQVTVSSGGSGGGGSGGGGSGGQSVLTQPPSVSAAPGQKVTISCSGNTSNIGNNFVSWYQQRPGRAPQLLIYETDKRPSGIPDRFSASKSGTSGTLAITGLQTGDEADYYCATWAASLSSARVFGTGTQVIVLGQPKVNPTVTLFPPSSEELQANKATLVCLISDFYPGAVTVAWKADSSPVKAGVETTTPSKQSNNKYAASSYLSLTPEQWKSHRSYSCQVTHEGSTVEKTVAPTECS
B3: CAP256V2LS-10E8-3 (bispecific antibody)
heavy chain: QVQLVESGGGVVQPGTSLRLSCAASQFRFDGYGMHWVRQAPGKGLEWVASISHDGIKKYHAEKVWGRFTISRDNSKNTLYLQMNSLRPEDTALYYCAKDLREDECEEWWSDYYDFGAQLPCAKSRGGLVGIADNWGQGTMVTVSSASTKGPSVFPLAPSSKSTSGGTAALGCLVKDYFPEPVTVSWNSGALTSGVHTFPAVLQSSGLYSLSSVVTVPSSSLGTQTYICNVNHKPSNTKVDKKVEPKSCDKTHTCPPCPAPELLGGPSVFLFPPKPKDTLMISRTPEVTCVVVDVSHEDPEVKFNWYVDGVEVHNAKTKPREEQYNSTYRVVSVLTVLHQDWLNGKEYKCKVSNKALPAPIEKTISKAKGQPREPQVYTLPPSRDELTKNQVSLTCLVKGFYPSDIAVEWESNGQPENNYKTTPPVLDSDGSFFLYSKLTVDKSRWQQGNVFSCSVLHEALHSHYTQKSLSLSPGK
light chain (10E8v4 scFv, linker, CAP256V2LS LC): EVRLVESGGGLVKPGGSLRLSCSASGFDFDNAWMTWVRQPPGKGLEWVGRITGPGEGWSVDYAESVKGRFTISRDNTKNTLYLEMNNVRTEDTGYYFCARTGKYYDFWSGYPPGEEYFQDWGQGTLVIVSSGGGGSGGGGSGGGGSSELTQDPAVSVALKQTVTITCRGDSLRSHYASWYQKKPGQAPVLLFYGKNNRPSGIPDRFSGSASGNRASLTITGAQAEDEADYYCSSRDKSGSRLSVFGGGTKLTVGGSGGGGSGGGGSGGQSVLTQPPSVSAAPGQKVTISCSGNTSNIGNNFVSWYQQRPGRAPQLLIYETDKRPSGIPDRFSASKSGTSGTLAITGLQTGDEADYYCATWAASLSSARVFGTGTQVIVLGQPKVNPTVTLFPPSSEELQANKATLVCLISDFYPGAVTVAWKADSSPVKAGVETTTPSKQSNNKYAASSYLSLTPEQWKSHRSYSCQVTHEGSTVEKTVAPTECS
B4: CAP256V2LS-VRC01-6 (bispecific antibody)
heavy chain: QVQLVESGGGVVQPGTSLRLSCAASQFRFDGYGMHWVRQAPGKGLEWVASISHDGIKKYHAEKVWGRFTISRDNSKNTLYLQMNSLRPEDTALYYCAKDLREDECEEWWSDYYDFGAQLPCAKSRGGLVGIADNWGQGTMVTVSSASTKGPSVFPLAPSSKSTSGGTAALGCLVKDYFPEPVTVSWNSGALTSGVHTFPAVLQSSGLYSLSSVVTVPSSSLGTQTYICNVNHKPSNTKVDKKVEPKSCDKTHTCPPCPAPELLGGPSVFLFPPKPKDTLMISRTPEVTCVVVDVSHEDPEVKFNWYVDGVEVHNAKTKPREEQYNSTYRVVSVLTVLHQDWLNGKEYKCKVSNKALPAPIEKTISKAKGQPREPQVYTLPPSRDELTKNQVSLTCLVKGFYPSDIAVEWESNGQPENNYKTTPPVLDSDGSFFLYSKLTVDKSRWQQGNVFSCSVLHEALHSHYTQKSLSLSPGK
light chain (VRC01 scFv, linker, CAP256V2LS LC): QVQLVQSGGQMKKPGESMRISCRASGYEFIDCTLNWIRLAPGKRPEWMGWLKPRGGAVNYARPLQGRVTMTRDVYSDTAFLELRSLTVDDTAVYFCTRGKNCDYNWDFEHWGRGTPVIVSSGGGGSGGGGSGGGGSLTQSPGTLSLSPGETAIISCRTSQYGSLAWYQQRPGQAPRLVIYSGSTRAAGIPDRFSGSRWGPDYNLTISNLESGDFGVYYCQQYEFFGQGTKVQVDKTHTDKTHTDKTHTQSVLTQPPSVSAAPGQKVTISCSGNTSNIGNNFVSWYQQRPGRAPQLLIYETDKRPSGIPDRFSASKSGTSGTLAITGLQTGDEADYYCATWAASLSSARVFGTGTQVIVLGQPKVNPTVTLFPPSSEELQANKATLVCLISDFYPGAVTVAWKADSSPVKAGVETTTPSKQSNNKYAASSYLSLTPEQWKSHRSYSCQVTHEGSTVEKTVAPTECS
B5: CAP256V2LS-10E8-1 (bispecific antibody)
heavy chain: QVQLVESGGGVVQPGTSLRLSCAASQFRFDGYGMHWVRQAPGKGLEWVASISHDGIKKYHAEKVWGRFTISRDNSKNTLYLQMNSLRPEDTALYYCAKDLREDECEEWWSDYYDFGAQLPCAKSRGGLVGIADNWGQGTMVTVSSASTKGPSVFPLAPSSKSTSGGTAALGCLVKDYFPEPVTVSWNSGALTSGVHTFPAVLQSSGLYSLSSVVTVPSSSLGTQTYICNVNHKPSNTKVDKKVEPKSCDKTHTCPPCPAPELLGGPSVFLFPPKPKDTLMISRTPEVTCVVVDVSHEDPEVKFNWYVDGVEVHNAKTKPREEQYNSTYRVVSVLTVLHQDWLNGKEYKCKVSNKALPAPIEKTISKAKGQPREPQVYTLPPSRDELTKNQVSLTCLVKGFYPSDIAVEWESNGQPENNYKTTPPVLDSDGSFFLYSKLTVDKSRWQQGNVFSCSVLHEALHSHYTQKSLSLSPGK
light chain (10E8v4 scFv, linker, CAP256V2LS LC): EVRLVESGGGLVKPGGSLRLSCSASGFDFDNAWMTWVRQPPGKGLEWVGRITGPGEGWSVDYAESVKGRFTISRDNTKNTLYLEMNNVRTEDTGYYFCARTGKYYDFWSGYPPGEEYFQDWGQGTLVIVSSGGGGSGGGGSGGGGSSELTQDPAVSVALKQTVTITCRGDSLRSHYASWYQKKPGQAPVLLFYGKNNRPSGIPDRFSGSASGNRASLTITGAQAEDEADYYCSSRDKSGSRLSVFGGGTKLTVGGSGGQSVLTQPPSVSAAPGQKVTISCSGNTSNIGNNFVSWYQQRPGRAPQLLIYETDKRPSGIPDRFSASKSGTSGTLAITGLQTGDEADYYCATWAASLSSARVFGTGTQVIVLGQPKVNPTVTLFPPSSEELQANKATLVCLISDFYPGAVTVAWKADSSPVKAGVETTTPSKQSNNKYAASSYLSLTPEQWKSHRSYSCQVTHEGSTVEKTVAPTECS
B6: CAP256V2LS (antibody, V domains shown)
VH: QVQLVESGGGVVQPGTSLRLSCAASQFRFDGYGMHWVRQAPGKGLEWVASISHDGIKKYHAEKVWGRFTISRDNSKNTLYLQMNSLRPEDTALYYCAKDLREDECEEWWSDYYDFGAQLPCAKSRGGLVGIADNWGQGTMVTVSS
VL: QSVLTQPPSVSAAPGQKVTISCSGNTSNIGNNFVSWYQQRPGRAPQLLIYETDKRPSGIPDRFSASKSGTSGTLAITGLQTGDEADYYCATWAASLSSARVFGTGTQVIVLG
B7: CAP256V2LS-10E8-2 (bispecific antibody)
heavy chain: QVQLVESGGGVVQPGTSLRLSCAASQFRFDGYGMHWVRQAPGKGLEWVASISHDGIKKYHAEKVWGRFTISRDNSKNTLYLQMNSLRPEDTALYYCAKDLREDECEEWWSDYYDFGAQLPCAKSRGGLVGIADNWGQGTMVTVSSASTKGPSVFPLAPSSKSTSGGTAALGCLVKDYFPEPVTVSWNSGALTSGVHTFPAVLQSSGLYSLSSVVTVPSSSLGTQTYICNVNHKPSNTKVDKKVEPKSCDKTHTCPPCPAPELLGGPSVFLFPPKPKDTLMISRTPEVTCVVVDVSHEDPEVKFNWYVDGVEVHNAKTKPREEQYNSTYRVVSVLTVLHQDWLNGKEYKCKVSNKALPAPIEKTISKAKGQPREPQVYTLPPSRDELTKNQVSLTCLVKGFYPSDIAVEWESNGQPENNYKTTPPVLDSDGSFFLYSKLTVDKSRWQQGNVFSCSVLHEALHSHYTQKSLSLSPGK
light chain (10E8v4 scFv, linker, CAP256V2LS LC): EVRLVESGGGLVKPGGSLRLSCSASGFDFDNAWMTWVRQPPGKGLEWVGRITGPGEGWSVDYAESVKGRFTISRDNTKNTLYLEMNNVRTEDTGYYFCARTGKYYDFWSGYPPGEEYFQDWGQGTLVIVSSGGGGSGGGGSGGGGSSELTQDPAVSVALKQTVTITCRGDSLRSHYASWYQKKPGQAPVLLFYGKNNRPSGIPDRFSGSASGNRASLTITGAQAEDEADYYCSSRDKSGSRLSVFGGGTKLTVGGSGGGGSGGQSVLTQPPSVSAAPGQKVTISCSGNTSNIGNNFVSWYQQRPGRAPQLLIYETDKRPSGIPDRFSASKSGTSGTLAITGLQTGDEADYYCATWAASLSSARVFGTGTQVIVLGQPKVNPTVTLFPPSSEELQANKATLVCLISDFYPGAVTVAWKADSSPVKAGVETTTPSKQSNNKYAASSYLSLTPEQWKSHRSYSCQVTHEGSTVEKTVAPTECS
B8: CAP256V2LS-VRC01-5 (bispecific antibody)
heavy chain: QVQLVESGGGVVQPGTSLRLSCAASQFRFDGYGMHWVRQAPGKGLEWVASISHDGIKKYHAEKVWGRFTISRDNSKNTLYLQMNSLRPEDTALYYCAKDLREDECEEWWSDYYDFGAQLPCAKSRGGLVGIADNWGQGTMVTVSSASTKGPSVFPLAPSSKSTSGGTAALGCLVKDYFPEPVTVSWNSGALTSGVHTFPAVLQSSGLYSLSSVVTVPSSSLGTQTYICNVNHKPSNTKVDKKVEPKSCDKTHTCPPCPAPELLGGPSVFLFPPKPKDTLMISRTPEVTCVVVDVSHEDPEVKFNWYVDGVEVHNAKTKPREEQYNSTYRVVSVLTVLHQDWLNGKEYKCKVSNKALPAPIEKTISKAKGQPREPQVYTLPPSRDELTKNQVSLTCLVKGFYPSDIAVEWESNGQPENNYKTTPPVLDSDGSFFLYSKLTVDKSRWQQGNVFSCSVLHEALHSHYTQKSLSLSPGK
light chain (VRC01 scFv, linker, CAP256V2LS LC): QVQLVQSGGQMKKPGESMRISCRASGYEFIDCTLNWIRLAPGKRPEWMGWLKPRGGAVNYARPLQGRVTMTRDVYSDTAFLELRSLTVDDTAVYFCTRGKNCDYNWDFEHWGRGTPVIVSSGGGGSGGGGSGGGGSLTQSPGTLSLSPGETAIISCRTSQYGSLAWYQQRPGQAPRLVIYSGSTRAAGIPDRFSGSRWGPDYNLTISNLESGDFGVYYCQQYEFFGQGTKVQVDKTHTDKTHTQSVLTQPPSVSAAPGQKVTISCSGNTSNIGNNFVSWYQQRPGRAPQLLIYETDKRPSGIPDRFSASKSGTSGTLAITGLQTGDEADYYCATWAASLSSARVFGTGTQVIVLGQPKVNPTVTLFPPSSEELQANKATLVCLISDFYPGAVTVAWKADSSPVKAGVETTTPSKQSNNKYAASSYLSLTPEQWKSHRSYSCQVTHEGSTVEKTVAPTECS
B9: CAP256V2LS-J3-4 (bispecific antibody)
heavy chain: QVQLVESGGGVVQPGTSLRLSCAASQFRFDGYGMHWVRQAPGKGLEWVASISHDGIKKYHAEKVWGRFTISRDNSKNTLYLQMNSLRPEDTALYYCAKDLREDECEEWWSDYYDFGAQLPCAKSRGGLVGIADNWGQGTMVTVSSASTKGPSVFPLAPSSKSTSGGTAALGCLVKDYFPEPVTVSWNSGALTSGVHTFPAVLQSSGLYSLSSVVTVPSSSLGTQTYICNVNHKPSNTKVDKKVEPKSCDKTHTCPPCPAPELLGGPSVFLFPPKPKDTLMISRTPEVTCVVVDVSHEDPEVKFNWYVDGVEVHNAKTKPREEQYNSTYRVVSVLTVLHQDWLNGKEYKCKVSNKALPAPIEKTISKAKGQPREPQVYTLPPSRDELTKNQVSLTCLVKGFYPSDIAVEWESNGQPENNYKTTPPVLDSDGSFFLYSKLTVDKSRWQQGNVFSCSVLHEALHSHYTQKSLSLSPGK
light chain (J3 VHH, linker, CAP256V2LS LC): EVQLVESGGGLVQAGGFLRLSCELRGSIFNQYAMAWFRQAPGKEREFVAGMGAVPHYGEFVKGRFTISRDNAKSTVYLQMSSLKPEDTAIYFCARSKSTYISYNSNGYDYWGRGTQVTVSSDKTHTQSVLTQPPSVSAAPGQKVTISCSGNTSNIGNNFVSWYQQRPGRAPQLLIYETDKRPSGIPDRFSASKSGTSGTLAITGLQTGDEADYYCATWAASLSSARVFGTGTQVIVLGQPKVNPTVTLFPPSSEELQANKATLVCLISDFYPGAVTVAWKADSSPVKAGVETTTPSKQSNNKYAASSYLSLTPEQWKSHRSYSCQVTHEGSTVEKTVAPTECS
B10: CAP256V2LS-J3-5 (bispecific antibody)
heavy chain: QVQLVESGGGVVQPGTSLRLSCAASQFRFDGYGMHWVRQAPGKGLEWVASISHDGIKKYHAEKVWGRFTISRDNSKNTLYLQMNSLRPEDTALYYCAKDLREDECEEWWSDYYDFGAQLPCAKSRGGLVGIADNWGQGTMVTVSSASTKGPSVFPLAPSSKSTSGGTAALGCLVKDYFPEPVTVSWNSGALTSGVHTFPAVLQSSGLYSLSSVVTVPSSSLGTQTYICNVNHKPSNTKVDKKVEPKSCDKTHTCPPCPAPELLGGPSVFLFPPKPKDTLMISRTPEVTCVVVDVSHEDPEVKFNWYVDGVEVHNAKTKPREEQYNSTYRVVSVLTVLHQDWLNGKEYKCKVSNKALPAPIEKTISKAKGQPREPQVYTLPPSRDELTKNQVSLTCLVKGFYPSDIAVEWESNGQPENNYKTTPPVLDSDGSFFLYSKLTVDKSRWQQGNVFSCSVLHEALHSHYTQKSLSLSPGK
light chain (J3 VHH, linker, CAP256V2LS LC): EVQLVESGGGLVQAGGFLRLSCELRGSIFNQYAMAWFRQAPGKEREFVAGMGAVPHYGEFVKGRFTISRDNAKSTVYLQMSSLKPEDTAIYFCARSKSTYISYNSNGYDYWGRGTQVTVSSDKTHTGDKTHTQSVLTQPPSVSAAPGQKVTISCSGNTSNIGNNFVSWYQQRPGRAPQLLIYETDKRPSGIPDRFSASKSGTSGTLAITGLQTGDEADYYCATWAASLSSARVFGTGTQVIVLGQPKVNPTVTLFPPSSEELQANKATLVCLISDFYPGAVTVAWKADSSPVKAGVETTTPSKQSNNKYAASSYLSLTPEQWKSHRSYSCQVTHEGSTVEKTVAPTECS
B11: CAP256V2LS-J3-6 (bispecific antibody)
heavy chain: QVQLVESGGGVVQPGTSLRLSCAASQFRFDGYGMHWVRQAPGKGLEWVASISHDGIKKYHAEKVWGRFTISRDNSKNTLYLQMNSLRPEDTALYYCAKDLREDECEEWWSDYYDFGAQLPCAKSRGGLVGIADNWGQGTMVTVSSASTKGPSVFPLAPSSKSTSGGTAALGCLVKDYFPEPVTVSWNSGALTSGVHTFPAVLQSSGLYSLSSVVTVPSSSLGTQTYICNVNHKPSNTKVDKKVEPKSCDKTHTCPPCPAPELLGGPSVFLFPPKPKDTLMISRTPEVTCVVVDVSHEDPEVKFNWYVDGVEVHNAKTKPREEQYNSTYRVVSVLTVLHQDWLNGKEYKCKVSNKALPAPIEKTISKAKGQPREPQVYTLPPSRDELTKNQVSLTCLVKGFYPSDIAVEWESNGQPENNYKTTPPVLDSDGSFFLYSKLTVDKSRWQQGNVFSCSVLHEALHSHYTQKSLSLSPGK
light chain (J3 VHH, linker, CAP256V2LS LC): EVQLVESGGGLVQAGGFLRLSCELRGSIFNQYAMAWFRQAPGKEREFVAGMGAVPHYGEFVKGRFTISRDNAKSTVYLQMSSLKPEDTAIYFCARSKSTYISYNSNGYDYWGRGTQVTVSSDKTHTGDKTHTGDKTHTQSVLTQPPSVSAAPGQKVTISCSGNTSNIGNNFVSWYQQRPGRAPQLLIYETDKRPSGIPDRFSASKSGTSGTLAITGLQTGDEADYYCATWAASLSSARVFGTGTQVIVLGQPKVNPTVTLFPPSSEELQANKATLVCLISDFYPGAVTVAWKADSSPVKAGVETTTPSKQSNNKYAASSYLSLTPEQWKSHRSYSCQVTHEGSTVEKTVAPTECS

These binders were tested against T1, HIV-1 Env of strain WITO.33 (Env-pseudotyped virus) (HIV-1) (assay: cell-based or functional assay).

Point of comparison: B2, “neutralization potency, fold better than that of J3” value ~10 fold. Against it:
- B1 — the same, ~10 fold

What follows are binders tested against HIV-1 Env of strain SC422.8 (Env-pseudotyped virus) (HIV-1) (assay: cell-based or functional assay).

Point of comparison: B2, “neutralization potency, fold better than that of J3” value 3 fold. Against it:
- B1 — the same, 3 fold

The binders below were run against CAP256 wk34c80 (HIV-1) (assay: cell-based or functional assay).

Point of comparison: B7, “% neutralization, single point, Env-pseudotyped virus on TZM-bl” value 91%. Against it:
- B3 — higher, 99%
- B4 — higher, 98%
- B5 — higher, 98%
- B1 — higher, 100%
- B6 — higher, 100%
- B8 — lower, 67%
- B9 — higher, 100%
- B10 — higher, 100%
- B2 — higher, 100%
- B11 — higher, 100%

Target: T1, HIV-1 Env of strain WITO.33 …
Experiment: cell-based or functional assay
Remark: another data set of the same source

Point of comparison: B1, “% neutralization, single point, Env-pseudotyped virus on TZM-bl” value 100%. Against it:
- B3 — lower, 21%
- B4 — lower, 0%
- B5 — lower, 14%
- B6 — lower, 0%
- B7 — lower, 45%
- B8 — lower, 0%
- B9 — lower, 86%
- B10 — lower, 62%
- B2 — lower, 89%
- B11 — lower, 48%
